{"source": "patent US12458630", "about": "(University of California, dated 2025)", "binders": {"B1": {"name": "IKKα W651A-Flag (LIR-mutated IKKα) (enzyme)", "chain": "MERPPGLRPGAGGPWEMRERLGTGGFGNVCLYQHRELDLKIAIKSCRLELSTKNRERWCHEIQIMKKLNHANVVKACDVPEELNILIHDVPLLAMEYCSGGDLRKLLNKPENCCGLKESQILSLLSDIGSGIRYLHENKIIHRDLKPENIVLQDVGGKIIHKIIDLGYAKDVDQGSLCTSFVGTLQYLAPELFENKPYTATVDYWSFGTMVFECIAGYRPFLHHLQPFTWHEKIKKKDPKCIFACEEMSGEVRFSSHLPQPNSLCSLVVEPMENWLQLMLNWDPQQRGGPVDLTLKQPRCFVLMDHILNLKIVHILNMTSAKIISFLLPPDESLHSLQSRIERETGINTGSQELLSETGISLDPRKPASQCVLDGVRGCDSYMVYLFDKSKTVYEGPFASRSLSDCVNYIVQDSKIQLPIIQLRKVWAEAVHYVSGLKEDYSRLFQGQRAAMLSLLRYNANLTKMKNTLISASQQLKAKLEFFHKSIQLDLERYSEQMTYGISSEKMLKAWKEMEEKAIHYAEVGVIGYLEDQIMSLHAEIMELQKSPYGRRQGDLMESLEQRAIDLYKQLKHRPSDHSYSDSTEMVKIIVHTVQSQDRVLKELFGHLSKLLGCKQKIIDLLPKVEVALSNIKEADNTVMFMQGKRQKEIAHLLKIACTQSSARSLVGSSLEGAVTPQTSAWLPPTSAEHDHSLSCVVTPQDGETSAQMIEENLNCLGHLSTIIHEANEEQGNSMMNLDWSWLTE", "notes": "also called LIR-mutated IKKα variant; pCDH-CMV-MCS-EF1-Puro-IKKα W651A-Flag; not shown: Flag tag"}, "B2": {"name": "IKKα Y568A-Flag (LIR-mutated IKKα) (enzyme)", "chain": "MERPPGLRPGAGGPWEMRERLGTGGFGNVCLYQHRELDLKIAIKSCRLELSTKNRERWCHEIQIMKKLNHANVVKACDVPEELNILIHDVPLLAMEYCSGGDLRKLLNKPENCCGLKESQILSLLSDIGSGIRYLHENKIIHRDLKPENIVLQDVGGKIIHKIIDLGYAKDVDQGSLCTSFVGTLQYLAPELFENKPYTATVDYWSFGTMVFECIAGYRPFLHHLQPFTWHEKIKKKDPKCIFACEEMSGEVRFSSHLPQPNSLCSLVVEPMENWLQLMLNWDPQQRGGPVDLTLKQPRCFVLMDHILNLKIVHILNMTSAKIISFLLPPDESLHSLQSRIERETGINTGSQELLSETGISLDPRKPASQCVLDGVRGCDSYMVYLFDKSKTVYEGPFASRSLSDCVNYIVQDSKIQLPIIQLRKVWAEAVHYVSGLKEDYSRLFQGQRAAMLSLLRYNANLTKMKNTLISASQQLKAKLEFFHKSIQLDLERYSEQMTYGISSEKMLKAWKEMEEKAIHYAEVGVIGYLEDQIMSLHAEIMELQKSPYGRRQGDLMESLEQRAIDLAKQLKHRPSDHSYSDSTEMVKIIVHTVQSQDRVLKELFGHLSKLLGCKQKIIDLLPKVEVALSNIKEADNTVMFMQGKRQKEIWHLLKIACTQSSARSLVGSSLEGAVTPQTSAWLPPTSAEHDHSLSCVVTPQDGETSAQMIEENLNCLGHLSTIIHEANEEQGNSMMNLDWSWLTE", "notes": "also called LIR-mutated IKKα variant; pCDH-CMV-MCS-EF1-Puro-IKKα Y568A-Flag; not shown: Flag tag"}, "B3": {"name": "endogenous syntaxin 17 (STX17) of MIA PaCa-2 cells (other, human, UniProt P56962 2-302, looked up)", "chain": "SEDEEKVKLRRLEPAIQKFIKIVIPTDLERLRKHQINIEKYQRCRIWDKLHEEHINAGRTVQQLRSNIREIEKLCLKVRKDDLVLLKRMIDPVKEEASAATAEFLQLHLESVEELKKQFNDEETLLQPPLTRSMTVGGAFHTTEAEASSQSLTQIYALPEIPQDQNAAESWETLEADLIELSQLVTDFSLLVNSQQEKIDSIADHVNSAAVNVEEGTKNLGKAAKYKLAALPVAGALIGGMVGGPIGLLAGFKVAGIAAALGGGVLGFTGGKLIQRKKQKMMEKLTSSCPDLPSQTDKKCS", "notes": "also called endogenous STX17"}}, "key": {"[1]": {"target": "endogenous LC3 (microtubule-associated protein light chain 3) of MIA PaCa-2 cells (human, UniProt Q9GZQ8 1-120)", "experiment": "co-IP in starved IKKα-ablated MIA PaCa-2 cells (FIG. 14C)"}, "[2]": {"target": "B2", "experiment": "co-IP in starved IKKα-ablated MIA PaCa-2 cells (FIG. 14C)"}, "[3]": {"target": "B1", "experiment": "co-IP in starved IKKα-ablated MIA PaCa-2 cells (FIG. 14C)"}, "[4]": {"target": "B3", "experiment": "co-IP with STX17, IKKα-ablated MIA PaCa-2 cells re-expressing wt IKKα (FIG. 14D)"}}, "data": [{"binder": "B1", "values": [{"measurement": "binding result", "setting": "[1]", "value": "no binding"}]}, {"binder": "B2", "values": [{"measurement": "binding result", "setting": "[1]", "value": "no binding"}]}, {"binder": "B3", "values": [{"measurement": "binding result", "setting": "[2]", "value": "no binding"}, {"measurement": "binding result", "setting": "[3]", "value": "no binding"}]}, {"binder": "endogenous VAMP8 of MIA PaCa-2 cells (other, human, UniProt Q9BV40 1-100, looked up) MEEASEGGGNDRVRNLQSEVEGVKNIMTQNVERILARGENLEHLRNKTEDLEATSEHFKTTSQKVARKFWWKNVKMIVLICVIVFIIILFIVLFATGAFS", "values": [{"measurement": "binding result", "setting": "[4]", "value": "binds"}]}]}
